# In US20240400708A1:
# Where a chain is given by its changes, count along the chain named. In names and notes the source's numbering stands.
# B1: feline IgG1a mutant ID No. 356: S252Y, S428M, S434F, T403R (antibody, part only; not given: Variable domains, not shown: another chain or arm of the molecule)
# constant: ASTTAPSVFPLAPSCGTTSGATVALACLVLGYFPEPVTVSWNSGALTSGVHTFPAVLQASGLYSLSSMVTVPSSRWLSDTFTCNVAHPPSNTKVDKTVRKTDHPPGPKPCDCPKCPPPEMLGGPSIFIFPPKPKDTLYISRTPEVTCLVVDLGPDDSDVQITWFVDNTQVYTAKTSPREEQFNSTYRVVSVLPILHQDWLKGKEFKCKVNSKSLPSPIERTISKAKGQPHEPQVYVLPPAQEELSRNKVSVTCLIKSFHPPDIAVEWEITGQPEPENNYRTTPPQLDSDGRYFVYSKLSVDRSHWQRGNTYTCSVMHEALHFHHTQKSLTQSPGK
# B2: feline IgG1a mutant ID No. 375: S252Y, S434R, S254V (antibody, part only; not given: Variable domains, not shown: another chain or arm of the molecule)
# constant: B1 constant with S140V, R291T, M316S, F322R
# B3: feline IgG1a mutant ID No. 363: S252Y, S434R, D399T (antibody, part only; not given: Variable domains, not shown: another chain or arm of the molecule)
# constant: B1 constant with D287T, R291T, M316S, F322R
# B4: feline IgG1a mutant ID No. 369: S252Y, S434R, P247L (antibody, part only; not given: Variable domains, not shown: another chain or arm of the molecule)
# constant: B1 constant with P133L, R291T, M316S, F322R
# B5: feline IgG1a mutant ID No. 372: S252Y, S434R, Q311M (antibody, part only; not given: Variable domains, not shown: another chain or arm of the molecule)
# constant: B1 constant with Q197M, R291T, M316S, F322R
# B6: feline IgG1a mutant ID No. 368: S252Y, S434R, L314K (antibody, part only; not given: Variable domains, not shown: another chain or arm of the molecule)
# constant: B1 constant with L200K, R291T, M316S, F322R
# B7: feline IgG1a mutant ID No. 367: S252Y, S434R, G402R (antibody, part only; not given: Variable domains, not shown: another chain or arm of the molecule)
# constant: B1 constant with G290R, R291T, M316S, F322R
# B8: feline IgG1a mutant ID No. 360: S252Y, S434R, D312H (antibody, part only; not given: Variable domains, not shown: another chain or arm of the molecule)
# constant: B1 constant with D198H, R291T, M316S, F322R
# B9: feline IgG1a mutant ID No. 361: S252Y, S434R, D312P (antibody, part only; not given: Variable domains, not shown: another chain or arm of the molecule)
# constant: B1 constant with D198P, R291T, M316S, F322R
# B10: feline IgG1a mutant ID No. 376: S252Y, S434R, T250Q (antibody, part only; not given: Variable domains, not shown: another chain or arm of the molecule)
# constant: B1 constant with T136Q, R291T, M316S, F322R
# B11: feline IgG1a mutant ID No. 371: S252Y, S434R, Q311K (antibody, part only; not given: Variable domains, not shown: another chain or arm of the molecule)
# constant: B1 constant with Q197K, R291T, M316S, F322R
# B12: feline IgG1a mutant ID No. 364: S252Y, S434R, D401R (antibody, part only; not given: Variable domains, not shown: another chain or arm of the molecule)
# constant: B1 constant with D289R, R291T, M316S, F322R
# B13: feline IgG1a mutant ID No. 378: S252Y, S434R, T403R (antibody, part only; not given: Variable domains, not shown: another chain or arm of the molecule)
# constant: B1 constant with M316S, F322R
# B14: feline IgG1a mutant ID No. 377: S252Y, S434R, T256M (antibody, part only; not given: Variable domains, not shown: another chain or arm of the molecule)
# constant: B1 constant with T142M, R291T, M316S, F322R
# B15: feline IgG1a mutant ID No. 362: S252Y, S434R, D399M (antibody, part only; not given: Variable domains, not shown: another chain or arm of the molecule)
# constant: B1 constant with D287M, R291T, M316S, F322R
# B16: feline IgG1a mutant ID No. 374: S252Y, S434R, Q311Y (antibody, part only; not given: Variable domains, not shown: another chain or arm of the molecule)
# constant: B1 constant with Q197Y, R291T, M316S, F322R
# B17: feline IgG1a mutant ID No. 370: S252Y, S434R, Q311H (antibody, part only; not given: variable domains and light chain, not shown: another chain or arm of the molecule)
# constant: B1 constant with Q197H, R291T, M316S, F322R
# B18: feline IgG1a mutant ID No. 373: S252Y, S434R, Q311R (antibody, part only; not given: Variable domains, not shown: another chain or arm of the molecule)
# constant: B1 constant with Q197R, R291T, M316S, F322R
# B19: feline IgG1a mutant ID No. 359: S252Y, S434R, D312A (antibody, part only; not given: variable domains and light chain, not shown: another chain or arm of the molecule)
# constant: B1 constant with D198A, R291T, M316S, F322R
# B20: feline IgG1a Fc mutant Q311R, S428M (antibody, part only; not given: variable domains and light chain, not shown: another chain or arm of the molecule; small tags and cut ends)
# constant: B1 constant with Y138S, Q197R, R291T, F322S
# B21: feline IgG1a Fc mutant Q311L, S428L (antibody, part only; not given: Variable domains, not shown: another chain or arm of the molecule; small tags and cut ends)
# constant: B1 constant with Y138S, Q197L, R291T, M316L, F322S
# B22: feline IgG1a Fc mutant Q311Y, S428L (antibody, part only; not given: Variable domains, not shown: another chain or arm of the molecule; small tags and cut ends)
# constant: B1 constant with Y138S, Q197Y, R291T, M316L, F322S
# B23: feline IgG1a Fc mutant S428L, S252Y (antibody, part only; not given: Variable domains, not shown: another chain or arm of the molecule)
# constant: B1 constant with R291T, M316L, F322S
# B24: feline IgG1a Fc mutant S428L, S252W (antibody, part only; not given: Variable domains, not shown: another chain or arm of the molecule; small tags and cut ends)
# constant: B1 constant with Y138W, R291T, M316L, F322S
# B25: feline IgG1a Fc mutant Q311L, S428M (antibody, part only; not given: Variable domains, not shown: another chain or arm of the molecule; small tags and cut ends)
# constant: B1 constant with Y138S, Q197L, R291T, F322S
# B26: feline IgG1a Fc mutant Q311K, S428L (antibody, part only; not given: variable domains and light chain, not shown: another chain or arm of the molecule; small tags and cut ends)
# constant: B1 constant with Y138S, Q197K, R291T, M316L, F322S
# B27: feline IgG1a Fc mutant Q311H, S428Y (antibody, part only; not given: Variable domains, not shown: another chain or arm of the molecule)
# constant: B1 constant with Y138S, Q197H, R291T, M316Y, F322S
# B28: feline IgG1a Fc mutant S428M, S252H (antibody, part only; not given: Variable domains, not shown: another chain or arm of the molecule; small tags and cut ends)
# constant: B1 constant with Y138H, R291T, F322S
# Molecular target: feline FcRn complex (FcRn-α subunit and β-microglobulin) (feline)
# Experiment: SPR (Biacore), FcRn on SA chip, pH 6
row,Kd,Binder
1,0.0249 nM,B1
2,0.551 nM,B2
3,0.923 nM,B3
4,0.442 nM,B4
5,0.443 nM,B5
6,1.3 nM,B6
7,0.885 nM,B7
8,1.09 nM,B8
9,0.188 nM,B9
10,0.394 nM,B10
11,0.488 nM,B11
12,0.732 nM,B12
13,0.859 nM,B13
14,1.55 nM,B14
15,1.14 nM,B15
16,0.715 nM,B16
17,0.974 nM,B17
18,0.365 nM,B18
19,0.626 nM,B19

# Molecular target: Feline FcRn complex (FcRn-alpha subunit and beta-microglobulin) (feline)
# Experiment: SPR (Biacore), feline FcRn captured on SA chip, IgG flowed over, pH 6
row,Kd,Binder
1,5.28 nM,B20
2,6.03 nM,B21
3,5.72 nM,B22
4,4.88 nM,B23
5,6.14 nM,B24
6,5.7 nM,B25
7,5.62 nM,B26
8,6.92 nM,B27
9,6.83 nM,B28

# Molecular target: feline FcRn complex (FcRn-α subunit and β-microglobulin) (feline)
# Experiment: SPR (Biacore), FcRn on SA chip, pH 7.4
row,Kd,Binder
1,9.98 nM,B1
2,34.1 nM,B2
3,38.9 nM,B3
4,26.5 nM,B4
5,21.9 nM,B5
6,25.6 nM,B6
7,44.8 nM,B7
8,43.1 nM,B8
9,20.7 nM,B9
10,24.6 nM,B10
11,10.7 nM,B11
12,24.4 nM,B12
13,25.8 nM,B13
14,25.6 nM,B14
15,43.6 nM,B15
16,30.3 nM,B16
17,31.3 nM,B17
18,12.9 nM,B18
19,25.3 nM,B19
